In publication PMC2213439:
One block for each substance: values may come before it.

Key:
Test in all cases: cell adhesion assay
[1] = biological target: E-cadherin-Fc K30A (human)
[2] = biological target: E-cadherin-Fc E89A (human)
[3] = biological target: E-cadherin-Fc E56A (human)
[4] = biological target: E-cadherin-Fc D44A (human)
[5] = biological target: E-cadherin-Fc E31D (human)
[6] = biological target: E-cadherin-Fc K33A (human)
[7] = biological target: E-cadherin-Fc K28A (human)
[8] = biological target: E-cadherin-Fc E31A (human)
[9] = biological target: E-cadherin-Fc S83A (human) (UniProt P12830)
[10] = biological target: E-cadherin-Fc K25A (human)
[11] = biological target: E-cadherin-Fc N27A (human)
[12] = biological target: E-cadherin-Fc N86A (human)
[13] = biological target: Purified human IgG1 (human)
[14] = biological target: E-cadherin-Fc KEG30-32RDT (human) (UniProt P12830)

- adhesion as percent of wild type (% of wild-type) [1]: 99
- adhesion as percent of wild type (% of wild-type) [2]: 2
- adhesion as percent of wild type (% of wild-type) [3]: 90
- adhesion as percent of wild type (% of wild-type) [4]: 94
- percent of cells bound [5]: 41%
- adhesion as percent of wild type (% of wild-type) [6]: 91
- adhesion as percent of wild type (% of wild-type) [7]: 94
- percent of cells bound [8]: 41%
- adhesion as percent of wild type (% of wild-type) [9]: 105
- adhesion as percent of wild type (% of wild-type) [10]: 76
- adhesion as percent of wild type (% of wild-type) [11]: 62
- adhesion as percent of wild type (% of wild-type) [12]: 93
Substance: E-cadherin on MCF-7 human breast epithelial cells (from UniProt P12830 155-882) (natural protein)

- adhesion as percent of wild type (% of adhesion to wild-type) [1]: 53
- adhesion as percent of wild type (% of adhesion to wild-type) [3]: 102
- adhesion as percent of wild type (% of adhesion to wild-type) [4]: 105
- adhesion as percent of wild type (% of adhesion to wild-type) [6]: 104
- adhesion as percent of wild type (% of adhesion to wild-type) [7]: 79
- adhesion as percent of wild type (% of adhesion to wild-type) [9]: 80
- adhesion as percent of wild type (% of adhesion to wild-type) [10]: 87
- adhesion as percent of wild type (% of adhesion to wild-type) [11]: 57
- percent of cells bound [13]: < 1%
- adhesion as percent of wild type (% of adhesion to wild-type) [12]: 86
Substance: Integrin αEβ7 on K562 transfectants (K562-αEβ7) (from UniProt P38570 19-1179; P26010 20-798) (complex)

- adhesion as percent of wild type (% of wild-type) [1]: > 82
- percent of cells bound [1]: 58%
- adhesion as percent of wild type (% of wild-type) [2]: 20
- percent of cells bound [2]: 12%
- adhesion as percent of wild type (% of wild-type) [3]: > 82
- percent of cells bound [3]: 60%
- adhesion as percent of wild type (% of wild-type) [4]: > 82
- percent of cells bound [4]: 59%
- adhesion as percent of wild type (% of wild-type) [5]: < 2
- adhesion as percent of wild type (% of wild-type) [6]: > 82
- percent of cells bound [6]: 60%
- adhesion as percent of wild type (% of wild-type) [7]: > 82
- percent of cells bound [7]: 58%
- adhesion as percent of wild type (% of wild-type) [8]: < 2
- adhesion as percent of wild type (% of wild-type) [9]: > 82
- percent of cells bound [9]: 68%
- adhesion as percent of wild type (% of wild-type) [10]: > 82
- percent of cells bound [10]: 69%
- adhesion as percent of wild type (% of wild-type) [11]: > 82
- percent of cells bound [11]: 58%
- adhesion as percent of wild type (% of wild-type) [12]: > 82
- percent of cells bound [12]: 57%
- adhesion as percent of wild type (% of wild-type) [14]: < 2
Substance: Integrin αEβ7 on human IEL-496 T cells (from UniProt P38570 19-1179; P26010 20-798) (complex)
